{"source": "patent US8722043B2", "about": "“Induction of p53 expression by neutralization of neuropilin-2 for the treatment of cancers” (Diaclone, priority 2008, dated 2014)", "molecules": {"B1": {"name": "ITAC-B1: anti-human neuropilin-2 murine monoclonal antibody, VH SEQ ID No. 2, VL SEQ ID No. 4, produced by hybridoma CNCM 1-4054 (antibody, listed as Mus musculus, V domains shown)", "VH": "EVKLQESGAELVKPGASVKLSCTVSGFNIKDTYIHWVIQRPEQGLEWLGRIDPANGNTKYDPKFQGKATITADTSSNTAYLQLSSLTSEDTAVYYCARWAVVGDYWGQGTTLTVSS", "VL": "YCDHPLYKFLHVSAGDRVTITCKASQSVSDDVAWYQQKPGQSPKLLIYSASNRYTGVPDRFTGSGYGTDFTFTISTVQPEDLAVYFCQQDYSSPTFGSGTKLELK"}}, "key": {"[1]": {"system": "Colo320 human tumour cells", "experiment": "Tumour colony formation in semi-solid agar medium", "type": "cell-based", "experimental": "In order to determine whether the ITAC-B1 antibody has a neutralizing activity on the formation of tumour colonies in vitro, tests for tumour colony formation in vitro in a semi-solid agar medium containing agar were carried out. The principle of this test is based on bringing Colo320 human tumour cells (which express NRP-2 at their membrane surface and, furthermore, naturally secrete VEGF into the culture medium) into contact with the ITAC-B1 antibody. 4000 Colo320 cells are seeded into each well of a 24-well plate, in a semi-solid medium containing agar, and in the presence of 10 μg/ml of anti-NRP-2 antibody ITAC-B1. By way of comparison, the same test is carried out in the presence of cytotoxic agents with a proven action, i.e. 5-fluorouracil (5-FU), used at a rate of 50 μg/ml, or of Avastin® (bevacizumab: humanized monoclonal antibodies directed against VEGF), used at a rate of 50 μg/ml, or in the presence of a control isotype antibody (mouse IgG1 monoclonal antibody (BZ1)), used at a rate of 10 μg/ml.\nAt 10 days post-seeding, the colonies were counted under an optical microscope.\nSince neuropilin-2 is a coreceptor for VEGF, it was verified whether the activity of ITAC-B1 was dependent on an interaction between NRP-2 and the VEGF produced by the Colo320 cells. With this aim, the tests for Colo320-cell colony formation were carried out under the conditions described above, and in the presence of ITAC-B1 antibody (10 μg/ml), of bevacizumab (50 μg/ml) or of control antibody (10 μg/ml), used separately or in combination.\nThe results are given in FIG. 10: the y-axis represents the number of colonies formed; on the x-axis, the antibodies present in the culture medium are indicated by a “+”."}, "[2]": {"system": "AKT protein", "experiment": "Western blotting of AKT and its phosphorylation", "type": "cell-based, human", "conditions": "20 μg/ml, 24 hours; HT29-NRP-2 and Colo320^siRNA-ctrl cells; treated versus not treated", "experimental": "The possible effect of the ITAC-B1 antibody on the degree of phosphorylation of a VEGF receptor (VEGFR1), and also on the phosphorylation of the AKT protein which is activated by means of the VEGF receptors, was studied on HT29-NRP-2 and Colo320^siRNA-ctrl tumour cells.\nThe cells were cultured for 24 hours in RPMI medium+10% FCS in the presence of the BZ1 control antibody at 20 μg/ml, of ITAC-B1 at 20 μg/ml or of 5-FU at 50 μg/ml. A “nontreated cell” control was added (“medium” control). The cells were then isolated and lysed, and the phosphorylation of VEGFR-1 and of AKT was evaluated by Western blotting on the cell protein extracts, using antibodies directed against nonphosphorylated VEGFR1 (anti-VEGFR1 rabbit polyclonal antibody) or phosphorylated VEGFR1 (anti-phospho-VEGFR1^Tyr1213 rabbit polyclonal antibody, R&D systems) or antibodies directed against nonphosphorylated AKT (rabbit polyclonal antibody C67E7, Cell Signaling technology) or phosphorylated AKT (anti-phospho-AKT^Ser473 rabbit polyclonal antibody DE-9, Cell Signaling technology). The results are represented in FIGS. 16 and 17."}, "[3]": {"biological_target": "T1, neuropilin-2 on HT29-NRP-2 tumour cells (Homo sapiens, UniProt O60462)", "T1 construct": "expressed in transfected cells; host or cells: HT29 (human colorectal cancer) and P815 (murine mastocytoma) cells, G418-selected", "T1 sequence (O60462 21-931)": "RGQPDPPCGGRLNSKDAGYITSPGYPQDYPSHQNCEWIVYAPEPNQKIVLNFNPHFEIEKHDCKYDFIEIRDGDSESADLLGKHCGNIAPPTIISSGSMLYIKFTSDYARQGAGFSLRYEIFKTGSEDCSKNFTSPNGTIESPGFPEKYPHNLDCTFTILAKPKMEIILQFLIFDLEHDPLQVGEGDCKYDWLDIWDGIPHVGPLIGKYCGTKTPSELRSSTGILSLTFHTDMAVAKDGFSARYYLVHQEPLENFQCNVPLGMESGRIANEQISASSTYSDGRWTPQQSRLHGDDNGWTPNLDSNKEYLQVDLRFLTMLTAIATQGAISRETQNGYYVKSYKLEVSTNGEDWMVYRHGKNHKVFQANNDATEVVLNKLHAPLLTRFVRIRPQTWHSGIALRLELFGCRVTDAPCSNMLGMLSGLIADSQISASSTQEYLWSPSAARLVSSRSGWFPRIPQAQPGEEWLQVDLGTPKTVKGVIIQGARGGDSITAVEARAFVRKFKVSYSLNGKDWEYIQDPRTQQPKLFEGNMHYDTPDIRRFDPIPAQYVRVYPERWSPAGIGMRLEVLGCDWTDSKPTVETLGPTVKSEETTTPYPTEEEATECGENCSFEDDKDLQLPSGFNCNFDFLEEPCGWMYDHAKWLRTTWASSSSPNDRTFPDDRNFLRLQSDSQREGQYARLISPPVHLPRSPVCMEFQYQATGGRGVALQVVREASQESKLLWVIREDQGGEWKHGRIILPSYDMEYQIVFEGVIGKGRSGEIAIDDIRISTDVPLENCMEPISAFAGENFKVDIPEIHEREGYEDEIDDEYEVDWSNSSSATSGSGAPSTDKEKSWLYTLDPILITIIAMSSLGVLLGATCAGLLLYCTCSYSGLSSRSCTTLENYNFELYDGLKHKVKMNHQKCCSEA", "experiment": "Competition between VEGFa and ITAC-B1 for recognition of neuropilin-2 (flow cytometry)", "type": "binding", "conditions": "preincubation with VEGF 1000 ng/ml for 15 minutes", "experimental": "These cells were then incubated with the ITAC-B1 antibody or with a control isotype antibody (BZ1 antibody), and analysed by flow cytometry as described in Example 2 above."}, "[4]": {"system": "HT29-NRP-2 cells", "experiment": "Annexin V-APC apoptosis test", "type": "cell-based, human", "experimental": "In order to determine the ability of the ITAC-B1 antibody to induce apoptosis of tumour cells expressing NRP-2, an in vitro Annexin V-APC apoptosis test was carried out (BD Pharmingen, San Diego, Calif.). This test is based on the externalization of phosphatidylserin by apoptotic cells and on the binding of Annexin V-APC to this molecule.\n1 ml of DMEM medium containing 10% of inactivated FCS and 100 000 HT29-NRP-2 cells or 100 000 HT29ctrl cells were seeded, per well, into a 24-well Nunc plate. […] In parallel, “cells alone” controls were carried out, as were negative controls (anti-human mouse IgG1 antibody (BZ1) at the same concentrations as the ITAC-B1 antibody).\n[…] When the cells began to detach, 500 μl of DMEM medium-10% FCS were added per well. The cells were then centrifuged, washed twice in PBS, and then taken up in 300 μl of 1× binding buffer (provided in the kit), and then 5 μl of Annexin V-APC were subsequently added to 100 μl of this solution.\nThe panels of FIG. 13 are point-cloud representations of the flow cytometry analysis. For each of the panels, the fluorescence intensity (corresponding to the labelling of the cells with Annexin V-APC) is represented on the x-axis. The y-axis indicates the granulosity of the cells (Side Scatter or SSC). […] The percentage of cells labelled with Annexin V-APC (corresponding to the percentage of cells having entered into apoptosis) is indicated at the bottom-right of each panel.\nThe apoptosis induced was then measured by labelling with Annexin V-APC as described above.\nThe panels of FIG. 15 are point-cloud representations of the flow cytometry analysis. For each of the panels, the fluorescence intensity (corresponding to the labelling of the cells with Annexin V-APC) is represented on the x-axis. The y-axis indicates the granulosity (side scatter) of the cells. The conditions of treatment with the antibodies and the Avastin® are indicated to the left of the panels. The percentage of cells labelled with the Annexin V-APC, corresponding to the percentage of cells having entered into apoptosis, is indicated at the top-right of each panel."}}}
{"molecule": "B1", "values": [{"measurement": "number of colonies compared with the cells alone control", "setting": "[1]; ITAC-B1 10 μg/ml alone (FIG. 10)", "result": "greatly reduced"}, {"measurement": "number of colonies", "setting": "[1]; ITAC-B1 10 μg/ml combined with bevacizumab 50 μg/ml (FIG. 10)", "result": "identical to that observed when the medium contains the ITAC-B1 antibody alone"}, {"measurement": "amount of AKT and its phosphorylation status", "setting": "[2]", "result": "similar"}, {"measurement": "binding to the tumour cells in the presence of VEGFa", "setting": "[3]", "result": "does not prevent the binding of ITAC-B1 to the tumour cells"}, {"measurement": "apoptosis induced (Annexin V-APC labelling) as a function of concentration", "setting": "[4]; 0.5, 1 and 5 μg/ml, 16 hours", "result": "dose-dependent"}, {"measurement": "dose at which apoptosis of cells expressing NRP-2 is induced", "setting": "[4]; 16 hours incubation, 0.5, 1 and 5 μg/ml tested", "result": "greater than or equal to 1 μg/ml"}, {"measurement": "combined action with anticancer molecules (5-FU, irinotecan) on apoptosis", "setting": "[4]; FIG. 13", "result": "synergy of action"}, {"measurement": "percentage of cells labelled with Annexin V-APC (apoptosis)", "setting": "[4]; ITAC-B1 2.5 μg/ml jointly with 5-FU 10 μg/ml (FIG. 13)", "result": "~78.5", "unit": "%"}, {"measurement": "percentage of cells labelled with Annexin V-APC (apoptosis)", "setting": "[4]; ITAC-B1 2.5 μg/ml with irinotecan 10 μg/ml (FIG. 13)", "result": "~51", "unit": "%"}, {"measurement": "percentage of cells labelled with Annexin V-APC (apoptosis)", "setting": "[4]; ITAC-B1 5 μg/ml jointly with 5-FU 10 μg/ml (FIG. 13)", "result": "~80", "unit": "%"}, {"measurement": "percentage of cells labelled with Annexin V-APC (apoptosis)", "setting": "[4]; ITAC-B1 5 μg/ml with irinotecan 10 μg/ml (FIG. 13)", "result": "~58", "unit": "%"}, {"measurement": "percentage of cells labelled with Annexin V-APC (apoptosis)", "setting": "[4]; antibody 20 μg/ml, 6 hours, cells cultured with Avastin (bevacizumab) 50 μg/ml (FIG. 15)", "result": "approximately 58%"}, {"measurement": "percentage of cells labelled with Annexin V-APC (apoptosis)", "setting": "[4]; antibody 20 μg/ml, 6 hours, without Avastin (FIG. 15)", "result": "~51", "unit": "%"}, {"measurement": "ability to induce apoptosis of tumour cells expressing neuropilin-2 (selection of clones)", "setting": "[4]; selection criterion of the hybridoma clones", "result": "ability to induce apoptosis of tumour cells expressing neuropilin-2"}]}
